Results taken from patent US20230009539A1 (CLEVELAND CLINIC FOUNDATION, published 2023).

Molecular target: T1, IKKi (endogenous, MEFs) (mouse (MEFs), UniProt Q9R0T8 1-717)
T1 sequence (looked up): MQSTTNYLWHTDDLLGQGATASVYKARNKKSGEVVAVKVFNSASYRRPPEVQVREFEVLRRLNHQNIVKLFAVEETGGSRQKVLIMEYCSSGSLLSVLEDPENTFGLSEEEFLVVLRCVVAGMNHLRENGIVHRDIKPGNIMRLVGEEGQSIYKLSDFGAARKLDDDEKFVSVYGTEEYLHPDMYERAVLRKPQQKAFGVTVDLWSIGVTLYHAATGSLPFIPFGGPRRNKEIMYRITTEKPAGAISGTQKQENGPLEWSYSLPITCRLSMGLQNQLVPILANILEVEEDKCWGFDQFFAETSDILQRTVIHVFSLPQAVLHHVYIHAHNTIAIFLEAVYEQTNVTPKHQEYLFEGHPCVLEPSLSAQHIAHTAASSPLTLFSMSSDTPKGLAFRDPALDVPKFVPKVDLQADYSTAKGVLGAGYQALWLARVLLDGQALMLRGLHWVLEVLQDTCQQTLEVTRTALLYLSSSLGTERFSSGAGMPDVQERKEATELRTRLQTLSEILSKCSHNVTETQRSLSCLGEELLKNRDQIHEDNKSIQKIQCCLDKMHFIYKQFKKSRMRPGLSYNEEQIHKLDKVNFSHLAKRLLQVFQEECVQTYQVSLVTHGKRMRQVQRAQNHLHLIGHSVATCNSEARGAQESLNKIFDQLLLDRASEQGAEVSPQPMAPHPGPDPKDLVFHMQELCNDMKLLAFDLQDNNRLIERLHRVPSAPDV
Test: anti-FLAG immunoprecipitation from cytoplasmic and nuclear fractions of reconstituted MEFs (FIG. 5G)
Procedure: Immunoblot, immunoprecipitation and nuclear fractionation: Cell were harvested and lysed on ice in a lysis buffer containing 0.5% Triton X-100, 20 mM Hepes pH 7.4, 150 mM NaCl, 12.5 mM-glycerophosphate, 1.5 mM MgCl2, 10 mM NaF, 2 mM dithiothreitol, 1 mM sodium orthovanadate, 2 mM EGTA, […], and 1 mM phenylmethylsulfonyl fluoride for 20 minutes, followed by centrifuging at 12,000 rpm for 15 minutes to extract clear lysates. For immunoprecipitation, cell lysates were incubated with 1 μg of antibody and A-sepharose beads at 4 degree overnight. After incubation, the beads were washed four times with lysis buffer and the precipitates were eluted with 2× sample buffer. Elutes and whole cell extracts were resolved on SDS-PAGE followed by immunobloting with antibodies. Nuclear fractionation was performed using NUCLEI EZ PREP kit purchased from Sigma in accordance with the manufacturer's instruction. Nuclear pellets were suspended in 30p1 of nuclear extraction buffer (20 mM HEPES, 400 mM NaCl, 1 mM EDTA, 1 mM EGTA in water, pH 7.9) containing freshly prepared 1 mM DTT and protease inhibitor cocktail. After 1.5 h incubation on ice bath with intermittent vortexing, extracts were centrifuged and supernatant was collected for immunoprecipitation.

B1: FLAG-tagged mouse wild-type Act1 (WT) (other, UniProt Q8N7N6 1-555, looked up)
chain: MNRSIPVEVDESEPFPSQLLKPIPEYSPEEELEPPAPNTRNMAPSSLSVLQCPPLKLANHQPVSQQVTCLRAKVLEEGEASFFRRHPELGKDISSCSSGASEPESELGALPPEHRFTLTEKRNRWLGSQLSAASPDTGHESDKSDPSLPNALADSFSGGQEMMPRPRPRPGPHRHRAAPDVPTIDTGYDSQPQDVLGIRQLERPLPLTSSCYLQDLPGPLRSRELPPQFELERYPMNAQLLPPHPSPQAPWNCQYYCPGGPYHHQVPHGHGYPPAAAYQQVLQPALPGQVLPGARARGPRPVQKVILNDSSPQDQEERPAQRDFSFPRLPRDQLYRPPSNGVEAPEESLDLPAELRPHGPQAPSLAAVPRPPSNPLARGTLRTSNLPEELRKVFITYSMDTAMEVVKFVNFLLVNGFQTAIDIFEDRIRGIDIIKWMERYLRDKTVMIIVAISPKYKQDVEGAESQLDEDEHGLHTKYIHRMMQIEFISQGSMNFRFIPVLFPNAKKEHVPTWLQNTHVYSWPKNKKNILLRLLREEEYVAPPRGPLPTLQVVPL
notes: also called flag-tagged mAct1; flag-Act1; not shown: FLAG tag
- binding result: binds
